Our source for the stoichiometry N values is publication PMC3980048.

This assay deals with HIV-1 clade C (CZA97.012) gp140 Env trimer (HIV-1 clade C, strain CZA97.012). Kind of assay: SEC.

Regarding “HIV-1 clade C (CZA97.012) gp140 Env trimer (natural protein)”, the stoichiometry N stood at 3.
